The source of these data is publication PMC5491343 (SLAS discovery, 2016).

Square brackets hold non-standard residues; d marks the D form. Ends that are not written are not given here. Peptide text beside a SMILES is read from it. * marks the point of attachment. X1 = CN(C)c1ccc2c(-c3ccc(C(=O)NCCCCCN4C(=O)CC(*)C4=O)cc3C(=O)[O-])c3ccc(=[N+](C)C)cc-3oc2c1; pY = N[C@@H](Cc1ccc(OP(=O)(O)O)cc1)C(=O)O

In assay [1] the target is T1, isolated tandem SH2 domains of ZAP-70 (Homo sapiens, UniProt P43403).
T1 sequence (P43403 1-259 limits assumed): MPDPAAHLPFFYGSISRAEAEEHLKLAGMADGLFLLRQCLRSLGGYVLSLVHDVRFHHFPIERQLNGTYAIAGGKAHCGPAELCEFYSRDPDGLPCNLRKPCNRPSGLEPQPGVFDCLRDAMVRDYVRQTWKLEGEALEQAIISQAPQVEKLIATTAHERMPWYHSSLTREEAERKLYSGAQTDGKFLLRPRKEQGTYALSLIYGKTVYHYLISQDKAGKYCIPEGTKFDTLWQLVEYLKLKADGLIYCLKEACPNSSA
The assay is described as follows: Fluorescence polarization assay with the isolated tandem SH2 unit. It is filed as binding. The note with it: data not shown. (In general: Polarisation of emitted light reports the rotation of a fluorescent probe.)

Another assay concerns the target T2, ZAP-70 (Homo sapiens, UniProt P43403).
T2 sequence (P43403 1-606): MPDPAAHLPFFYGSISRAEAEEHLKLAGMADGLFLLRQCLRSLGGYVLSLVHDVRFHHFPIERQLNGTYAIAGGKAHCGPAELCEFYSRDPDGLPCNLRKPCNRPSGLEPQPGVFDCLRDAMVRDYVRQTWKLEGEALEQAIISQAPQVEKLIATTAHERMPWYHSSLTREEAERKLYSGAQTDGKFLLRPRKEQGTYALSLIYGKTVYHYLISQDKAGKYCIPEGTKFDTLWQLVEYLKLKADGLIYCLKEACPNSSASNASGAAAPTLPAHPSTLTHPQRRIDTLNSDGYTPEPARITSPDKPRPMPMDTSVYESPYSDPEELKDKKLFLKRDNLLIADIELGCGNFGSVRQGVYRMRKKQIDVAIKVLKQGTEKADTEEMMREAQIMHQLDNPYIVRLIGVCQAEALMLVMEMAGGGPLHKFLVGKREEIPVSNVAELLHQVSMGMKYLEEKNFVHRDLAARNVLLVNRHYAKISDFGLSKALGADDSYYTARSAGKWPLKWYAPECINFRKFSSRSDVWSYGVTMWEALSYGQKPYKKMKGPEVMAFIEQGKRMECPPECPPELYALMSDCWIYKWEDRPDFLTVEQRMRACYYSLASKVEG
Description: TR-FRET ZAP-70:2pY binding / inhibition assay. The following applies: read-out: KD, ZAP-70 binding to AlexaFluor488-2pY. Background: In TR-FRET formats the signal depends on donor and acceptor labels being close together.

The next assay concerns the target ZAP-Src chimera. Description: Fluorescence polarization 2pY binding to ZAP-Src chimera. The note with it: read-out: binding constant for 2pY peptide and the ZAP-Src chimera; FP, TAMRA-2pY.
Assay [2] deals with 2pY ITAM peptide ITAM (Homo sapiens) (UniProt P20963). The following applies: cited from earlier work.
Assay [3] concerns the target T3, ZAP-70 (zeta-associated protein of 70 kDa), construct spanning residues 1-606, wild type (UniProt P43403 1-606).
T3 sequence (looked up): T2 sequence (P43403 1-606)
Description: fluorescence polarisation.

A further assay deals with T4, ZAP-70 Y315F/Y319F (UniProt P43403 1-619, Y315F | Y319F).
T4 sequence (looked up): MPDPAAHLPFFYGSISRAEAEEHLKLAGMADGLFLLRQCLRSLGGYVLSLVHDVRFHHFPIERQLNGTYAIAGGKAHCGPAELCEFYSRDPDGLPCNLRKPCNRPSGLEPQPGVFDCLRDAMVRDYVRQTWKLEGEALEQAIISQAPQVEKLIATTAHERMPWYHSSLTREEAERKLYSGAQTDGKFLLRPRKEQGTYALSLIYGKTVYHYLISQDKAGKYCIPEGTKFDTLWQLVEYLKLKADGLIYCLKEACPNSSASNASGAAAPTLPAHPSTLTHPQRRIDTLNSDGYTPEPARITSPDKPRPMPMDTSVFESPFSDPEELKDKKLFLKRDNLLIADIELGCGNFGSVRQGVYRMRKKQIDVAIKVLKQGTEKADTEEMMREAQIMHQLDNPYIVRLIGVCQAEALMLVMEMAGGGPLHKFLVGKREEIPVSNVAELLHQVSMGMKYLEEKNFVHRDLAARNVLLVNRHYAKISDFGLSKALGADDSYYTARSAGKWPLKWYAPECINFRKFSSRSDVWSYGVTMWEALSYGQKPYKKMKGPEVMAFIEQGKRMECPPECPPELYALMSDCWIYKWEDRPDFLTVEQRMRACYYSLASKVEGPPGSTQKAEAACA
The assay is described as follows: fluorescence polarisation.

On to “2pY: fluorescently labeled doubly phosphorylated ITAM peptide of the ζ chain (CGNQLpYNELNLGRREEpYDVLD) (C(TAMRA C5 maleimide)GNQL[pY]NELNLGRREE[pY]DVLD)”, for which the “dissociation constant, tandem SH2 unit and 2pY peptide” value in assay [1] is reported as “nearly identical to the Src-ZAP fusion protein”. In addition, the Kd with ZAP-70 was found to be 55.4 ± 7.1 nM.

Regarding `CC(C)C[C@H](NC(=O)[C@H](CC(N)=O)NC(=O)[C@H](CC(C)C)NC(=O)[C@H](CCC(=O)O)NC(=O)[C@H](CC(N)=O)NC(=O)[C@H](Cc1ccc(OP(=O)(O)O)cc1)NC(=O)[C@H](CC(C)C)NC(=O)[C@H](CCC(N)=O)NC(=O)[C@H](CC(N)=O)NC(=O)CNC(=O)[C@@H](N)CSC1CC(=O)N(CCCCCNC(=O)c2ccc(-c3c4ccc(=[N+](C)C)cc-4oc4cc(N(C)C)ccc34)c(C(=O)[O-])c2)C1=O)C(=O)NCC(=O)N[C@@H](CCCNC(=N)N)C(=O)N[C@@H](CCCNC(=N)N)C(=O)N[C@@H](CCC(=O)O)C(=O)N[C@@H](CCC(=O)O)C(=O)N[C@@H](Cc1ccc(OP(=O)(O)O)cc1)C(=O)N[C@@H](CC(=O)O)C(=O)N[C@H](C(=O)N[C@@H](CC(C)C)C(=O)N[C@@H](CC(=O)O)C(=O)O)C(C)C` (stereo partly drawn) [TAMRA-2pY] (H-C(X1)GNQL[pY]NELNLGRREE[pY]DVLD-OH; N-terminus and C-terminus assumed), at ZAP-Src chimera, the Kd was determined as 15.8 ± 1.3 nM.

As for ZAP-70 (from UniProt P43403), the Kd in assay [2] was 76.6 nM.

B1: TAMRA-labeled ITAM 2pY peptide (CGNQLpYNELNLGRREEpYDVLD), from the first ITAM of the T-cell receptor zeta chain (peptide)
peptide: C(TAMRA C5 maleimide)GNQL[pY]NELNLGRREE[pY]DVLD
Take B1: the Kd came to 45.7 ± 4.7 nM in assay [3] and 82.2 ± 5.6 nM with ZAP-70 Y315F/Y319F.
